Assays:
Settings in all cases: tags: gift from N. Ferrara, Genentech; chain copies: 2 (dimer, stated)
[1] = target: T1, VEGF165 (recombinant human vascular endothelial growth factor, 165 aa form) (Homo sapiens, UniProt P15692-4 P15692-4:27-191); test: FP filter; nitrocellulose filter; Kd1, X1 0.62, Kd2 ~100 nM
[2] = target: T1, VEGF165 (recombinant human vascular …); test: filter
[3] = target: T1, VEGF165 (recombinant human vascular …); test: filter; Kd1, X1 0.77, Kd2 10-100 nM
[4] = target: T1, VEGF165 (recombinant human vascular …); test: filter; remark: listed apart in the source
Protocol: Internally-labeled RNA ligands used for binding studies were prepared by in vitro transcription using T7 RNA polymerase (Milligan et al. (1987) Nucl. Acids Res. 15:8783) and were purified on denaturing polyacrylamide gels to ensure size homogeneity. All RNA ligands were diluted to about 1 nM in PBS, denatured at 90° C. for 2 minutes, and then cooled on ice prior to incubation with the protein. This denaturation/renaturation cycle performed at high dilution is necessary to ensure that the RNA is essentially free from dimers and other higher order aggregates. Concentrations of the stock solutions of VEGF, from which other dilutions were made, were determined from the absorbance reading at 280 nm using the calculated value for ε280 of 46,600 M^-1cm^-1 for the VEGF dimer (Gill et al. (1989) Anal. Biochem. 182:319). Data sets that define the binding curves were fit to either eq. 2 or eq. 5 by the non-linear least squares method using the software package Kaleidagraph (Synergy Software, Reading, Pa.).
(§1) To this end, certain ligands were synthesized and tested for binding affinity. The binding studies were performed using the protocols described in Example 1.

[5] = target: T1, VEGF165 (recombinant human vascular …); test: inhibition; VEGF receptor binding
Protocol: VEGF was radioiodinated by the Iodegen method (Jakeman et al. (1992) J. Clin. Invest. 89:244) to a specific activity of 2.4×10^4 cpm/ng. Human umbilical vein endothelial cells (HUVECs) were plated in 24-well plates at a density of 1–2×10^5 cells/well and grown to confluence in EGM (Clonetics, San Diego, Calif.) media (24–48 hrs). At confluence, the cells were washed 3 times with PBS and incubated for 2 hrs at 4° C. in α-MEM serum-free media containing ^125I-labeled VEGF with or without unlabeled competitor (VEGF, EGF, or RNA). For experiments done with RNA, 0.2 units of placental RNase inhibitor (Promega, Madison, Wis.) were included in the media. […] At the end of the 2 hr incubation period, the supernatant was removed and the wells washed 2 times with PBS. HUVECs were then lysed with 1% triton X-100/1M NaOH and the amount of cell-associated ^125I-VEGF determined by gamma counting.
as §1

[6] = target: T1, VEGF165 (recombinant human vascular …); test: filter; clone listed in families 1 and 2

T1 sequence (P15692 other isoform, or with tags, fused parts or gaps): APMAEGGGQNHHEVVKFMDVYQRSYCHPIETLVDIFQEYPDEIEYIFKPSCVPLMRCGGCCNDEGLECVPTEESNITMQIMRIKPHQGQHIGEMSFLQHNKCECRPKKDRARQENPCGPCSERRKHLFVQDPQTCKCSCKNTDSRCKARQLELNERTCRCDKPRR

| Binder | Kd [2] | further results |
| --- | --- | --- |
| 17B (ssRNA, 2'-NH2 pyrimidines) RNA: GGGAGGACGAUGCGGCGCUGUGUUCAAUGCGGGGAUCGGGCCGGAGGAUGAACAAAUGGCGGGUCAGACGACUCGCCCGA | – | Kd [1]: 0.028 nM |
| ssDNA 1 (ssDNA) DNA: ATCCGCCTGATTAGCGATACTTCTGCGAGAGACCTACTGGAACGTTTTGTGATATTCACAACTTGAGCAAAATCACCTGCAGGGG | 12 nM | – |
| AACACTTCCCCACTGGATAGAGGCCTTTCGCAGAGCCGGTGCTTA (ssDNA) [66t] | 0.35 nM | – |
| ssDNA b99 (ssDNA) DNA: CTACCTACGATCTGACTAGCCACGATAATCCTCCGAAAGCGTTGTCCGAATGGGTCGTTAGCTTAGCTTACTCTCATGTAGTTCCT | 34 nM | – |
| 30B (ssRNA, 2'-NH2 pyrimidines) RNA: GGGAGGACGAUGCGGCAUGGUUGUGAACUGUUGUGAUCAAUGCGGGGAGGGUAAUGGUGGGUGGUCAGACGACUCGCCCGA | – | Kd [3]: 0.034 nM |
| GCAAGGGGTCCTGCCGAATGGGGGAATACGCTAGCCGAAA (ssDNA) [88t] | 19 nM | – |
| ssDNA 10 (ssDNA) DNA: ATCCGCCTGATTAGCGATACTGTACCATCCACGGTTTACGTGGACAAGAGGGCCCTGGTACACTTGAGCAAAATCACCTGCAGGGG | 1 nM | – |
| ssDNA 33 (ssDNA) DNA: ATCCGCCTGATTAGCGATACTTCAAGCACTCCCGTCTTCCAGACAAGAGTGCAGGGCCTCTACTTGAGCAAAATCACCTGCAGGGG | 2 nM | – |
| GTAGTTCCTTTAGGACTAGAGGGCCGCCTAC (ssDNA) [15t] | 3 nM | – |
| ssDNA 6 (ssDNA) DNA: ATCCGCCTGATTAGCGATACTATACACCCGGCGGGCCTACCGGATCGTTGATTTCTCTCCACTTGAGCAAAATCACCTGCAGGGG | 1 nM | – |
| GGAGGTGCGTTGTCCGAAGGGGTCGTTAGTCACCTC (ssDNA) [85t] | 0.3 nM | – |
| ssDNA b60 (ssDNA) DNA: CTACCTACGATCTGACTAGCCCACCGCAGAGTGTTACACCCCATAGGAGAAGTCCGGATGGCTTAGCTTACTCTCATGTAGTTCCT | 26 nM | – |
| ssDNA b65 (ssDNA) DNA: CTACCTACGATCTGACTAGCCGAGGTCCCCCACTGGATAGAGTTGTTGAAACAACGGTGCGCTTAGCTTACTCTCATGTAGTTCCT | 0.53 nM | – |
| ssDNA b80 (ssDNA) DNA: CTACCTACGATCTGACTAGCCCGTCGCGTGACTATAACCACACGCAGACTAGAGTGCAGGGCTTAGCTTACTCTCATGTAGTTCCT | 8.1 nM | – |
| ssDNA 23 (ssDNA) DNA: ATCCGCCTGATTAGCGATACTGGGCATCTAACCCAGACCTACCGGAACGTTATCGCTTGTGACTTGAGCAAAATCACCTGCAGGGG | 0.75 nM | – |
| ssDNA 15 (ssDNA) DNA: ATCCGCCTGATTAGCGATACTACCGCTGTGTAGTTCCTTTAGGACTAGAGGGCCGCCTACACTTGAGCAAAATCACCTGCAGGGG | 0.88 nM | – |
| ssDNA b79 (ssDNA) DNA: CTACCTACGATCTGACTAGCGAGGCATTAGGTCCGAATGGTAGTAATGCTGTCGTGCCTTGCTTAGCTTACTCTCATGTAGTTCCT | 2 nM | – |
| ssDNA b59 (ssDNA) DNA: CTACCTACGATCTGACTAGCAACACGAGCATGTGGGGTCCCTTCCGAATGGGGGGTACAGGCTTAGCTTACTCTCATGTAGTTCCT | 91 nM | – |

| Binder | Kd [2] | further results |
| --- | --- | --- |
| ssDNA b53 (ssDNA) DNA: CTACCTACGATCTGACTAGCGCAAGGGCATCTCGGAATCGGTTAATCTGACTTGCAATACGCTTAGCTTACTCTCATGTAGTTCCT | 2.5 nM | – |
| AGGGCCACGTCTATTTAGACTAGAGTGCAGTGGTTC (ssDNA) [56t] | 0.2 nM | – |
| ssDNA b85 (ssDNA) DNA: CTACCTACGATCTGACTAGCGAGGAGGTGCGTTGTCCGAAGGGGTCGTTAGTCACCTCGTGCTTAGCTTACTCTCATGTAGTTCCT | 0.15 nM | – |
| CGAGGTCCCCCACTGGATAGAGTTGTTGAAACAACGGTGCGCTTA (ssDNA) [65t] | 0.32 nM | – |
| TTTTACCCUGAUGGUAGACGCCGGGGUGTTTTT (mixed, 2'-NH2/2'-OMe variant (position code lost in text); 5' and 3' phosphorothioate thymidine caps) [NX-214] | – | Kd [4]: 0.2 nM; Ki [5]: 1 nM |
| TTTTACCCUGAUGGUAGACGCCGGGGUGTTTTT (mixed, 2'-NH2 pyrimidines; 5' T*T*T*T* and 3' T*T*T*T*T phosphorothioate thymidine caps) [NX-178] | – | Kd [4]: 0.7 nM; Ki [5]: 1 nM |
| TTTTACCCUGAUGGUAGACGCCGGGGUGTTTTT (mixed, as NX-213 plus internal phosphorothioate between A7 and U8) [NX-215] | – | Kd [4]: 0.2 nM; Ki [5]: 1 nM |
| TTTTACCCUGAUGGUAGACGCCGGGGUGTTTTT (mixed, all 2'-OMe core; 5' and 3' phosphorothioate thymidine caps) [NX-191] | – | Kd [4]: 120 nM; Ki [5]: 500 nM |
| TTTTACCCUGAUGGUAGACGCCGGGGUGTTTTT (mixed, 2'-NH2 pyrimidines; all purines 2'-OMe except four; 5' and 3' phosphorothioate thymidine caps) [NX-213] | – | Kd [4]: 0.2 nM; Ki [5]: 1 nM |
| ssDNA b88 (ssDNA) DNA: CTACCTACGATCTGACTAGCGCAAGGGGTCCTGCCGAATGGGGGAATACGCTAGCCGAAAGCTTACTCTCATGTAGTTCCT | 34 nM | – |
| ssDNA b95 (ssDNA) DNA: CTACCTACGATCTGACTAGCCCACTGCATAGAGAACTGGATCGACGGTCCAAAGTTCGGTGCTTAGCTTACTCTCATGTAGTTCCT | 0.9 nM | – |
| ssDNA b56 (ssDNA) DNA: CTACCTACGATCTGACTAGCGCAGGGCCACGTCTATTTAGACTAGAGTGCAGTGGTTCGCTTACTCTCATGTAGTTCCT | 0.5 nM | – |
| ssDNA b66 (ssDNA) DNA: CTACCTACGATCTGACTAGCAACACTTCCCCACTGGATAGAGGCCTTTCGCAGAGCCGGTGCTTAGCTTACTCTCATGTAGTTCCT | 1.3 nM | – |
| ACCCUGAUGGUAGACGCCGGGGUG (ssRNA, modified variant of NX-107 (position code lost in text)) [NX-176] | – | Kd [4]: 65 nM; Ki [5]: 10 nM |
| GTACCATCCACGGTTTACGTGGACAAGAGGGCCCTGGTAC (ssDNA) [10t] | 5 nM | – |
| ssDNA b81 (ssDNA) DNA: CTACCTACGATCTGACTAGCCCGAATGGGGCTGCGACTGCAGTGGACGTCACGTCGTTAGCTTACTCTCATGTAGTTCCT | – | Kd [6]: 0.3 nM |
| ssDNA b98 (ssDNA) DNA: CTACCTACGATCTGACTAGCGATCCACGAAGAAGCTTACTCTCATGTAGTTCCAGCTTACTCTCATGTAGTTCCT | > 100 nM | – |

Reference: patent US5811533, “High-affinity oligonucleotide ligands to vascular endothelial growth factor (VEGF)” (NeXstar Pharmaceuticals, Inc.)
